Here are results for 94 variants from the supplement of paper PMC10567573.

The labels stand for the following.
B1: KLHL13 (parent)
chain: TGEFLKLPFERLAFVLSSNSLKHC
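Also: lentivirally expressed fusions sorted by FACS into six bins by GFP to DsRed ratio, PSI derived from sequencing read proportions per bin multiplied by bin number.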

In this series the parent is B1. Put plainly: protein stability index of a GFP-peptide fusion (GPS, HEK-293T) (PSI 1-6); higher = more stable. The settings on record: c terminus: a fixed tail appended.
TGEFLKLPMERLAFVLSSNSLKHC [F9M]: the protein stability index worked out at 3.01.

For TGEFLKLPKERLAFVLSSNSLKHC [F9K], the protein stability index was 2.56.

With TGEFLKLPNERLAFVLSSNSLKHC [F9N], the protein stability index was 1.8.

As to TGEFLKLPHERLAFVLSSNSLKHC [F9H], the protein stability index stood at 1.71.

Turning to TGEFLKLPDERLAFVLSSNSLKHC [F9D], the protein stability index stood at 2.04.

For TGEFLKLPCERLAFVLSSNSLKHC [F9C], the protein stability index was found to be 1.82.

As for TGEFLKLPPERLAFVLSSNSLKHC [F9P], the protein stability index was 2.04.

TGEFLKLPTERLAFVLSSNSLKHC [F9T]: the protein stability index is 1.65.

With TGEFLKLPWERLAFVLSSNSLKHC [F9W], the protein stability index stood at 3.18.

Take TGEFLKLPSERLAFVLSSNSLKHC [F9S]: the protein stability index was determined as 2.07.

For TGEFLKLPGERLAFVLSSNSLKHC [F9G], the protein stability index amounted to 2.18.

On to TGEFLKLPYERLAFVLSSNSLKHC [F9Y], for which the protein stability index came out at 2.7.

TGEFLKLPIERLAFVLSSNSLKHC [F9I]: the protein stability index was determined as 3.04.

With RGEFLKLPFERLAFVLSSNSLKHC [T1R], the protein stability index worked out at 3.17.

As to EGEFLKLPFERLAFVLSSNSLKHC [T1E], the protein stability index was 2.1.

In the case of QGEFLKLPFERLAFVLSSNSLKHC [T1Q], the protein stability index came to 2.82.

Turning to HGEFLKLPFERLAFVLSSNSLKHC [T1H], the protein stability index came to 3.25.

With LGEFLKLPFERLAFVLSSNSLKHC [T1L], the protein stability index amounted to 3.16.

On to TGEFLKLDFERLAFVLSSNSLKHC [P8D], for which the protein stability index came out at 1.58.

With TGEFLKLQFERLAFVLSSNSLKHC [P8Q], the protein stability index stood at 1.41.

Turning to TGEFLKLTFERLAFVLSSNSLKHC [P8T], the protein stability index came out at 3.92.

As for TGEFLKLCFERLAFVLSSNSLKHC [P8C], the protein stability index was determined as 1.84.

Turning to TGEFLKLYFERLAFVLSSNSLKHC [P8Y], the protein stability index was found to be 4.25.

As to TGEFLKLNFERLAFVLSSNSLKHC [P8N], the protein stability index is 2.66.

Turning to TGEFLKLMFERLAFVLSSNSLKHC [P8M], the protein stability index was found to be 3.97.

As for TGEFLKLPFERTAFVLSSNSLKHC [L12T], the protein stability index was 1.53.

For TGEFLKLPFERAAFVLSSNSLKHC [L12A], the protein stability index was 1.99.

As to TGEFLKLPFEREAFVLSSNSLKHC [L12E], the protein stability index is 1.96.

Consider TGEFLKLPFERHAFVLSSNSLKHC [L12H], for which the protein stability index worked out at 2.27.

Consider TGEFLKLPFERNAFVLSSNSLKHC [L12N], for which the protein stability index is 2.15.

With TGEFLKLPFERKAFVLSSNSLKHC [L12K], the protein stability index came out at 2.12.

For the variant TGEFLKLPFERRAFVLSSNSLKHC [L12R], the protein stability index is 2.35.

Regarding TGEFLKLPFERGAFVLSSNSLKHC [L12G], the protein stability index was 2.83.

As for TGEFLKLPFERVAFVLSSNSLKHC [L12V], the protein stability index worked out at 1.44.

Consider TGEFLKLPFERMAFVLSSNSLKHC [L12M], for which the protein stability index came out at 3.48.

Take TGEFLKLPFERSAFVLSSNSLKHC [L12S]: the protein stability index worked out at 1.92.

As for TGEFLKLPFERQAFVLSSNSLKHC [L12Q], the protein stability index turned out to be 2.11.

Consider TGEFLKLPFERFAFVLSSNSLKHC [L12F], for which the protein stability index worked out at 3.73.

In the case of TGEFLKLPFERCAFVLSSNSLKHC [L12C], the protein stability index turned out to be 3.25.

For the variant TGEFLKLPFERDAFVLSSNSLKHC [L12D], the protein stability index is 2.38.

As to TGEFLKLPFERYAFVLSSNSLKHC [L12Y], the protein stability index was 1.76.

Take TGEFLKLPFERPAFVLSSNSLKHC [L12P]: the protein stability index turned out to be 1.77.

Regarding TGEFLKLPFERLIFVLSSNSLKHC [A13I], the protein stability index worked out at 3.35.

Take TGEFLKLPFERLMFVLSSNSLKHC [A13M]: the protein stability index came to 3.12.

Consider TGEFLKLPFERLNFVLSSNSLKHC [A13N], for which the protein stability index was determined as 1.93.

As to TGEFLKLPFERLHFVLSSNSLKHC [A13H], the protein stability index worked out at 1.72.

TGEFLKLPFERLCFVLSSNSLKHC [A13C]: the protein stability index came out at 2.41.

On to TGEFLKLPFERLGFVLSSNSLKHC [A13G], for which the protein stability index is 1.6.

With TGEFLKLPFERLEFVLSSNSLKHC [A13E], the protein stability index is 1.71.

Consider TGEFLKLPFERLPFVLSSNSLKHC [A13P], for which the protein stability index amounted to 3.04.

As to TGEFLKLPFERLKFVLSSNSLKHC [A13K], the protein stability index amounted to 1.98.

Turning to TGEFLKLPFERLFFVLSSNSLKHC [A13F], the protein stability index was 1.67.

Regarding TGEFLKLPFERLDFVLSSNSLKHC [A13D], the protein stability index worked out at 2.08.

Turning to TNEFLKLPFERLAFVLSSNSLKHC [G2N], the protein stability index worked out at 2.52.

For the variant TFEFLKLPFERLAFVLSSNSLKHC [G2F], the protein stability index was 3.56.

Turning to TKEFLKLPFERLAFVLSSNSLKHC [G2K], the protein stability index was 2.12.

On to TIEFLKLPFERLAFVLSSNSLKHC [G2I], for which the protein stability index came to 4.78.

Turning to THEFLKLPFERLAFVLSSNSLKHC [G2H], the protein stability index was 3.72.

Turning to TGEFLILPFERLAFVLSSNSLKHC [K6I], the protein stability index is 2.34.

On to TGEFLALPFERLAFVLSSNSLKHC [K6A], for which the protein stability index was 3.83.

For TGEFLPLPFERLAFVLSSNSLKHC [K6P], the protein stability index stood at 2.01.

TGEFLLLPFERLAFVLSSNSLKHC [K6L]: the protein stability index was 3.24.

Consider TGEFLCLPFERLAFVLSSNSLKHC [K6C], for which the protein stability index worked out at 2.54.

In the case of TGEFLTLPFERLAFVLSSNSLKHC [K6T], the protein stability index is 2.73.

Consider TGEFLDLPFERLAFVLSSNSLKHC [K6D], for which the protein stability index was 1.38.

For the variant TGEFLSLPFERLAFVLSSNSLKHC [K6S], the protein stability index was 3.28.

Turning to TGEFLKLPFHRLAFVLSSNSLKHC [E10H], the protein stability index came to 2.69.

On to TGEFLKLPFNRLAFVLSSNSLKHC [E10N], for which the protein stability index is 1.99.

On to TGEFLKLPFQRLAFVLSSNSLKHC [E10Q], for which the protein stability index stood at 2.03.

TGEFLKLPFTRLAFVLSSNSLKHC [E10T]: the protein stability index was 2.76.

On to TGEFLKLPFLRLAFVLSSNSLKHC [E10L], for which the protein stability index turned out to be 2.88.

For the variant TGEFLKLPFDRLAFVLSSNSLKHC [E10D], the protein stability index is 3.16.

On to TGEFLKLPFWRLAFVLSSNSLKHC [E10W], for which the protein stability index came to 3.59.

As for TGEFLKLPFYRLAFVLSSNSLKHC [E10Y], the protein stability index is 3.3.

On to TGEFLKLPFCRLAFVLSSNSLKHC [E10C], for which the protein stability index was found to be 2.48.

For the variant TGEFLKLPFRRLAFVLSSNSLKHC [E10R], the protein stability index is 4.24.

Turning to TGEFLKLPFGRLAFVLSSNSLKHC [E10G], the protein stability index amounted to 2.42.

As for TGEFLKLPFKRLAFVLSSNSLKHC [E10K], the protein stability index was determined as 2.76.

As to TGEFLKLPFARLAFVLSSNSLKHC [E10A], the protein stability index was found to be 3.65.

Consider TGEFLKLPFPRLAFVLSSNSLKHC [E10P], for which the protein stability index was found to be 2.75.

As to TGEFLKLPFMRLAFVLSSNSLKHC [E10M], the protein stability index turned out to be 3.02.

As for TGEFLKLPFSRLAFVLSSNSLKHC [E10S], the protein stability index worked out at 2.96.

Take TGEYLKLPFERLAFVLSSNSLKHC [F4Y]: the protein stability index worked out at 2.4.

TGEPLKLPFERLAFVLSSNSLKHC [F4P]: the protein stability index is 1.62.

For the variant TGESLKLPFERLAFVLSSNSLKHC [F4S], the protein stability index worked out at 3.3.

In the case of TGEELKLPFERLAFVLSSNSLKHC [F4E], the protein stability index was determined as 1.42.

Consider TGEILKLPFERLAFVLSSNSLKHC [F4I], for which the protein stability index worked out at 1.31.

Regarding TGEDLKLPFERLAFVLSSNSLKHC [F4D], the protein stability index turned out to be 1.55.

Consider TGERLKLPFERLAFVLSSNSLKHC [F4R], for which the protein stability index is 1.13.

Turning to TGEGLKLPFERLAFVLSSNSLKHC [F4G], the protein stability index worked out at 1.45.

On to TGEWLKLPFERLAFVLSSNSLKHC [F4W], for which the protein stability index amounted to 2.03.

For TGEALKLPFERLAFVLSSNSLKHC [F4A], the protein stability index was 2.92.

In the case of TGEKLKLPFERLAFVLSSNSLKHC [F4K], the protein stability index was 1.78.

For TGENLKLPFERLAFVLSSNSLKHC [F4N], the protein stability index amounted to 1.48.
